Assay results published in patent US20250353917A1 (SYSTIMMUNE, published 2025).
Positions count from the first letter of the chain named. Blank lines part the entries; values can stand above or below the binder they belong to.

Molecular target: T1, soluble recombinant extracellular domain of human EGFR (human, UniProt P00533 25-645)
T1 construct: extracellular domain
Assay: BLI (Octet), scFv-monoFc on AHC sensors, serial dilutions of EGFR extracellular domain;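 also: EGFR analyte titrated 0 to 200 nM, association 180–300 s then dissociation 300–600 s in PBS with 0.1% BSA and 0.05% Tween20, global 1:1 fit, duplicate means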
Experimental: Fc-containing protein was captured to anti-human Fc (AHC) sensor tips by loading for 180 seconds at 10 μg/ml. Alternatively, His-tagged proteins were covalently coupled at 10 ug/ml to AR2G tips using manufacturer protocol. After a 60-second baseline step, a 180- to 300-second association phase with serial dilutions (0-200 nM; 1:2.5 dilution factor) or a single 100 nM concentration of purified human EGFR in assay buffer (phosphate-buffered saline containing 0.1% BSA, 0.05% Tween20) was performed, followed by a 300- to 600—second dissociation phase in assay buffer. Regeneration was achieved using 10 mM glycine, pH 1.5. Binding curves were globally fit to a 1:1 model to extract the dissociation constants, KD. Binding kinetics for each protein were assessed in duplicate, with tabulated values reported as average±standard deviation.
The monoFc domain was used to load proteins onto anti-human Fc (AHC) sensors, followed by binding of scFv to serial dilutions of the extracellular domain of human EGFR.

Kd: 2.27 nM
koff: 0.0011 s⁻¹
kon: 474000 M⁻¹ s⁻¹
B1: SI-79SF11 (Fc fusion)
chain: EIQLTQSPSTLSVSPGERATFSCRASQSIGTNIHWYQQKTGQPPRLLIKYASESISGIPDRFSGSGSGTEFTLSITSVQSEDFAVYYCQQNNNWPTTFGPGTKLEILGGGGSGGGGSGGGGSGGGGSQVQLLQSGPGLVKPSETLSLTCTVSGFSLTNYGVHWIRQAPGKGLEWIGVIWSGGNTDYNTPFTSRFTISKDNSKNQVYFKLRSLTSEDTAIYYCARALTYYDYEFAYWGQGTLVTVSSGSGGSPVAGPSVFLFPPKPKDTLMISRTPEVTCVVVDVSHEDPEVKFNWYVDGVEVHNAKTKPREEQYASTYRVVSVLTVLHQDWLNGKEYKCKVSNKALPAPIEKTISKAKGQPREPQVYTLPPSRDELTKNQVSLRCHVKGFYPSDIAVEWESNGQPENNYKTTKPVLDSDGSFFLYSTLTVDKSRWQQGNVFSCSVLHEALHNHYTQKSLSLSPGK
notes: also called H5; H5 scFv-monoFc

Kd: 3.08 nM
koff: 0.00151 s⁻¹
kon: 481000 M⁻¹ s⁻¹
B4: SI-79SF12 (Fc fusion)
chain: EIVLTQSPSILSVSPGERATFSCRASQSIGTNIHWYQQRPGKPPRLLIKYASESISGIPSRFSGSGSGTEFTLTITSVQSEDIAVYYCQQNNNWPTTFGPGTKLELKGGGGSGGGGSGGGGSGGGGSQVQLQQSGPGLVKPSQTLSITCTVSGFSLTNYGVHWIRQAPGKGLEWLGVIWSGGNTDYNTPFTSRFTISKDNSKNQVYFKLRSLRAEDTAIYYCARALTYYDYEFAYWGQGTLVTVSSGSGGSPVAGPSVFLFPPKPKDTLMISRTPEVTCVVVDVSHEDPEVKFNWYVDGVEVHNAKTKPREEQYASTYRVVSVLTVLHQDWLNGKEYKCKVSNKALPAPIEKTISKAKGQPREPQVYTLPPSRDELTKNQVSLRCHVKGFYPSDIAVEWESNGQPENNYKTTKPVLDSDGSFFLYSTLTVDKSRWQQGNVFSCSVLHEALHNHYTQKSLSLSPGK
notes: also called H2; H2 scFv-monoFc

Kd: 3.45 nM
koff: 0.00177 s⁻¹
kon: 504000 M⁻¹ s⁻¹
B5: SI-79SF10 (Fc fusion)
chain: EIVLTQSPSILSVSPGERVTFSCRASQSIGTNIHWYQQRPGKPPRLLIKYASESISGIPARFSGSGSGTEFTLTISSVQSEDFATYYCQQNNNWPTTFGPGTKLELKGGGGSGGGGSGGGGSGGGGSQVQLVQSGPGLVKPSQTLSLTCTVSGFSLTNYGVHWIRQAPGKGLEWLGVIWSGGNTDYNTPFTSRFTITKDNSKNQVYFKLRSVRSEDTAVYYCARALTYYDYEFAYWGQGTLVTVSSGSGGSPVAGPSVFLFPPKPKDTLMISRTPEVTCVVVDVSHEDPEVKFNWYVDGVEVHNAKTKPREEQYASTYRVVSVLTVLHQDWLNGKEYKCKVSNKALPAPIEKTISKAKGQPREPQVYTLPPSRDELTKNQVSLRCHVKGFYPSDIAVEWESNGQPENNYKTTKPVLDSDGSFFLYSTLTVDKSRWQQGNVFSCSVLHEALHNHYTQKSLSLSPGK
notes: also called H3; H3 scFv-monoFc

The remaining lines, values behind:

B2: SI-79SF4 (Fc fusion)
chain: B4 chain with I10T, R39K, S60D, T76S, I83F, Q143E, S197T, L212V, E215D
notes: also called H4; H4 scFv-monoFc
Kd: 3.05 nM
koff: 0.00139 s⁻¹
kon: 450000 M⁻¹ s⁻¹

B3: SI-79SF6 (Fc fusion)
chain: EIVLTQSPSTLSVSPGERATFSCRASQSIGTNIHWYQQKPGKPPRLLIKYASESISGIPDRFSGSGSGTEFTLTISSVQSEDFAVYYCQQNNNWPTTFGPGTKLTVLGGGGSGGGGSGGGGSGGGGSQVQLQQSGPGLVKPSETLSITCTVSGFSLTNYGVHWIRQAPGKGLEWLGVIWSGGNTDYNTPFTSRFTITKDNSKNQVYFKLRSVRADDTAIYYCARALTYYDYEFAYWGQGTLVTVSSGSGGSPVAGPSVFLFPPKPKDTLMISRTPEVTCVVVDVSHEDPEVKFNWYVDGVEVHNAKTKPREEQYASTYRVVSVLTVLHQDWLNGKEYKCKVSNKALPAPIEKTISKAKGQPREPQVYTLPPSRDELTKNQVSLRCHVKGFYPSDIAVEWESNGQPENNYKTTKPVLDSDGSFFLYSTLTVDKSRWQQGNVFSCSVLHEALHNHYTQKSLSLSPGK
notes: also called H7; H7 scFv-monoFc
Kd: 3.14 nM
koff: 0.00143 s⁻¹
kon: 447000 M⁻¹ s⁻¹
